System: PPIs identified as affected by the SH3 domain deletions
Assay: Liquid DHFR-PCA low-throughput validation of PPIs affected by SH3 deletion (Fig. S1D-E)
Format: cell-based, Saccharomyces cerevisiae
Settings: bait LSB3; label = prey; liquid DHFR-PCA; prey _1 = lost, _2 = gained in screen
How it was run: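 Yeast diploids from DHFR-PCA mating grown 48 h in synthetic complete MSG medium pH 6.0 with NAT and HPH, normalized to 1 OD and diluted to 0.1 OD in liquid PCA selection medium. Growth followed by OD every 15 min for 72 h at 30 °C.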

B1: YMR216C_2 (protein, UniProt Q03656 1-742, looked up)
Serine/threonine-protein …: MGSSINYPGFVTKSAHLADTSTDASISCEEATSSQEAKKNFFQRDYNMMKKAPAPTKSKLSLALQTSKSSSSANGTVQEDTSSKTEDFSTKSIKKKPDSGVESHVSIQSDSGPQSDSDLDSDSSISSCDERNEESLKDYRPGGYHPAFKGEPYKDARYILVRKLGWGHFSTVWLAKDMVNNTHVAMKIVRGDKVYTEAAEDEIKLLQRVNDADNTKEDSMGANHILKLLDHFNHKGPNGVHVVMVFEVLGENLLALIKKYEHRGIPLIYVKQISKQLLLGLDYMHRRCGIIHTDIKPENVLMEIGDVEGIVQMVEALDKQKREAKRLQRHVSRSSDITANDSSDEKWAECQTSMPCGSSSNSKSRSIEKDLSKRCFRRPRRHTIITGSQPLPSPISSSNFFEMRAHFCGSSHNSFSSVSGNRNIPSSINNNSINNGIGIKNSNNSFLNSVPHSVTRMFINEDSNDNNNNDNSKNKNNNNNNSNNNNNEDIMNTPLHEEQLADSLSTFDISNISQSSDTNGPYISNTMDSNSNVSTDINSPENLIQIKIADLGNACWYDEHYTNSIQTREYRSPEVLLGAPWGCGADIWSTACLIFELITGDFLFEPDEGHSYTKDDDHIAQIIELLGELPSYLLRNGKYTRTFFNSRGLLRNISKLKFWPLEDVLTEKYKFSKDEAKEISDFLSPMLQLDPRKRADAGGLVNHPWLKDTLGMEEIRVPDRELYGSGSDIPGWFEEVRDHKRH
  Ratio (Deletedscore / WTscore): 1.244

Reference: paper PMC7954794, “Protein context shapes the specificity of SH3 domain-mediated interactions in vivo” (Nature Communications, 2021)
